Data taken from patent US20100211325A1.

Legend:
[1] = molecular target: Laminin 511/521 (LM511/521) (UniProt O15230); test: ELISA, 0.05 nM Lu gpFc captured by anti-human Fc, 5 nM LM511/521, anti-laminin detection
[2] = molecular target: Laminin 511/521 (LM511/521) (UniProt O15230); test: SPR (Biacore X), Lu gpFc captured on protein A chip (40 RU), 100 µl injection of 10 nM LM511/521, total change in RU
[3] = molecular target: Laminin 511/521 (LM511/521) (UniProt O15230); test: ELISA in buffers of pH 4.0 to 11.0 and 1M NaCl, negative control Fc fusion protein captured, LM511/521 added

Sequence of Muc18 Fc fusion protein (negative control) (P43121 24-559): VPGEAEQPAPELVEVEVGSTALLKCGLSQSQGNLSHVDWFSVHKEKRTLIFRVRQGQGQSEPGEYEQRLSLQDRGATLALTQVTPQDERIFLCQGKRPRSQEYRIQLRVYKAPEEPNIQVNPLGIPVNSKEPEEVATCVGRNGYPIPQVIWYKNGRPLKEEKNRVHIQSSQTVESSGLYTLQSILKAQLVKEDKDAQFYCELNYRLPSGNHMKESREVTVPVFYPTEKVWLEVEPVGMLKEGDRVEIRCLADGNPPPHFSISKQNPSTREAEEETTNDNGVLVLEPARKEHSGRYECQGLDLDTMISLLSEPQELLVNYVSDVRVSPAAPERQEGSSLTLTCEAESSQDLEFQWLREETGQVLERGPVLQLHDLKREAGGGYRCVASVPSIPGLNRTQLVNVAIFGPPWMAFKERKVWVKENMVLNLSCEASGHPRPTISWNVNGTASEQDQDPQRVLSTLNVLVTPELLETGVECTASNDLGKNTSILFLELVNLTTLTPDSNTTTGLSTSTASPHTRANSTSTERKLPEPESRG

Substance: Lu gpFc D198A/D199A (from UniProt P50895 32-547) (Fc fusion)
- ELISA % of native Lu gpFc [1]: 49%
- Biacore Δ RUs [2]: 59.7 RU

Substance: Lu gpFc D310A (from UniProt P50895 32-547) (Fc fusion)
- ELISA % of native Lu gpFc [1]: 26.4%
- Biacore Δ RUs [2]: 38.5 RU

Substance: Lu gpFc D312A (from UniProt P50895 32-547) (Fc fusion)
- ELISA % of native Lu gpFc [1]: 20.7%
- Biacore Δ RUs [2]: 4.4 RU

Substance: Lu gpFc D315A (from UniProt P50895 32-547) (Fc fusion)
- ELISA % of native Lu gpFc [1]: 93.2%
- Biacore Δ RUs [2]: 116 RU

Substance: Lu gpFc D316A (from UniProt P50895 32-547) (Fc fusion)
- ELISA % of native Lu gpFc [1]: 75%
- Biacore Δ RUs [2]: 79.8 RU

Substance: Lu gpFc E234A (from UniProt P50895 32-547) (Fc fusion)
- ELISA % of native Lu gpFc [1]: 90.7%
- Biacore Δ RUs [2]: 85 RU

Substance: Lu gpFc E269A (from UniProt P50895 32-547) (Fc fusion)
- ELISA % of native Lu gpFc [1]: 63.2%
- Biacore Δ RUs [2]: 73.8 RU

Substance: Lu gpFc E280A (from UniProt P50895 32-547) (Fc fusion)
- ELISA % of native Lu gpFc [1]: 73%
- Biacore Δ RUs [2]: 99.1 RU

Substance: Lu gpFc E281A (from UniProt P50895 32-547) (Fc fusion)
- ELISA % of native Lu gpFc [1]: 97.3%
- Biacore Δ RUs [2]: 100 RU

Substance: Lu gpFc E309A (from UniProt P50895 32-547) (Fc fusion)
- ELISA % of native Lu gpFc [1]: 40.4%
- Biacore Δ RUs [2]: 44.9 RU

Substance: Muc18 Fc fusion protein (negative control) (from UniProt P43121 24-559)
- OD450 (background binding) [3]: 0.18 to 0.64 OD450
